The source of these data is patent CN116018351A (SHANGHAI YOUTI JISHENG BIOMEDICAL CO LTD, dated 2023).

The test concerns the target T1, CD123-Fc重组蛋白 (human, UniProt P26951 19-305).
T1 construct: also called CD123-Fc蛋白; 人CD123-Fc; not shown: Fc part
T1 sequence: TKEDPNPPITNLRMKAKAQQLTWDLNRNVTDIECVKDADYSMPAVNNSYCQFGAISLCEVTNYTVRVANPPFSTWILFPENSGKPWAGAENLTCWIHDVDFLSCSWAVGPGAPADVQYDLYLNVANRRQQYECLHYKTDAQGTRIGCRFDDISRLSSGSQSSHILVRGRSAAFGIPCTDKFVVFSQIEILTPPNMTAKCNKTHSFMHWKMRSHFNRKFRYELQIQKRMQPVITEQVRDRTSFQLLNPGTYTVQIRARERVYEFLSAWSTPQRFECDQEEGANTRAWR
Briefly: FACS staining of CAR T cells with CD123-Fc recombinant protein.

B1: 抗CD123 scFv-C17 (in a CAR on T cells) (scFv)
scFv: QSALTQPASVSGSLGQSITISCTGTSSDVGTYDYVSWYQQHPGKAPKLMIYDVTYRPSGVSHRFSGSKSGNTASLTISGLQADDEADYYCQQYNNWPPRYTFGQGTKVEIKGGGGSGGGGSGGGGSQVQLVQSGAEVEKPGASVKLSCTASGYNFNSYYMHWVRLTPGQGLEWMGLINPTNGRTTYAQKFQGRVTMTGDTSTRTVYLALSSLRSEDSALYYCARGSPPHIFDPDFDYWGQGTLVTVSS
notes: Human scFv from phage display; not shown: rest of the CAR, hinge domain to CD3-zeta domain
Consider B1, for which the binding result is recorded as “binds”.

B2: 抗CD123 scFv-C26 (in a CAR on T cells) (scFv)
scFv: QSVLTQPPSASGTPGQRVTISCSGSRSNIGSNTVSWYQQFPGTAPKLLIYLNNQRPSGVPDRFSGSKSGTSASLAISGLQSEDEAEYYCATWDDDLNGVFGGGTKLTVLGGGGSGGGGSGGGGSEVQLVESGGGLVQPGGSLRLSCAASGFTLSNFEMNWVRQAPGRGLEWVSYISATTSATSYADSVKGRFTISRDNAKNSLYLQMNSLRAEDTAVYYCARVRDGYNFGYYYYYMDVWGKGTTVTVSS
notes: as for B1
On to B2, for which the binding result is “binds”.

B3: 抗CD123 scFv-C16 (in a CAR on T cells) (scFv)
scFv: QSVVTQPPSASGTPGQRVTISCSGSSSNIEGNTVSWYQQFPGAAPKLLIYSNSYRASGVPDRFSGSKSGTSASLAISELQSEDEADYYCSAWDDSLNGPVFGGGTELTVLGGGGSGGGGSGGGGSQVQLQESGGGLVQPGGSLRLSCAASGFTFSSYSMNWVRQAPGKGLEWVSYISSSSSTIYYADSVKGRFTISRDNAKNSLYLQMNSLRAEDTAVYYCARDIYGDWDYYYYGMDVWGQGTTVTVSS
notes: as for B1
For B3, the binding result is “binds”.

B4: 抗CD123 scFv-C2 (in a CAR on T cells) (scFv)
scFv: QSVVTQPPSVSAAPGQKVTISCSGSSSNIGNNYVSWYQQFPGTAPKLLIYDNNKRPSGIPDRFSGSKSGTSGTLGITGLQTGDEADYYCVTWDTSLSAGVFGGGTKLTVLGGGGSGGGGSGGGGSQITLKESGGGLVKPGGSLRLSCAASGFTFSNAWMSWVRQAPGKGLEWVGRIKSKTDGGTTDYAAPVKGRFTISRDDSKNTLYLQMNSLKTEDTAVYYCTTDPHGYYYGMDVWGQGTTVTVSS
notes: as for B1
Turning to B4, the binding result is on record as “binds”.

B5: 抗CD123 scFv-C14 (in a CAR on T cells) (scFv)
scFv: DIRMTQSPSSLSASVGDRVTITCQASQDITNYLNWYHQKPGKAPKLLIYDASNLETGVPSRFSGGGSGTDFTFTISSLQSEDIGTYYCQQYDDLPLTFGGGTKVEIKGGGGSGGGGSGGGGSQVQLQESGPGLVKPSETLSLTCTVSGGSISSSSHYWGWIRQPPGKGLEWIGSIYYSGSTYYNPSLKSRVTISVDTSKNQFSLKLSSVTAADTAVYYCARRVWVWPTYGMDVWGQGTTVTVSS
notes: as for B1
As to B5, the binding result is “binds”.

B6: 抗CD123 scFv-C6 (in a CAR on T cells) (scFv)
scFv: SYELTQPPSVSVSPGQTARIPCSGADLGDQYVSWYQHQPGQSPLLVIYEDDKRPSGIPERFSGSNSGNTATLTISGTQAMDEADYYCQAWDGNAAIFGGGTKLTVLGGGGSGGGGSGGGGSQVQLVQSGGGSVQPGGSLRLSCAASGFTFTRYSMNWVRQAPGKGLEWVSYISSSSSTIYYADSVKGRFTISRDNAKNSLYLQMNSLRDEDTAVYYCARDGYGGNSDYYGMDVWGQGTTVTVSS
notes: as for B1
In the case of B6, the binding result is “binds”.

B7: 抗CD123 scFv-C9 (in a CAR on T cells) (scFv)
scFv: QSVLTQPPSASGTPGQRVTISCSGSNSNIENNYVYWYQHLPGTAPKRLIYQNNQRPSGVPDRFSGSKSGTSASLAISGLRSEDEADYYCSAWDDSLSAWVFGGGTELTVLGGGGSGGGGSGGGGSEVHLVESGGGLVQPGRSLRLSCTASGFTFGDYAMNWVRQAPGKGLEWVGFIRSKASGGTTDYAASVKGRFTISRDDSKSIAYLQMNSLKTEDTAVYYCTRALRGYSYGLFDYWGQGTLVTVSS
notes: as for B1
For B7, the binding result is listed as “binds”.

B8: 抗CD123 scFv-C30 (in a CAR on T cells) (scFv)
scFv: AIRLTQSPSSLSASVGDRVTITCQASQNINNYLNWYQQKSGKAPKLLIYDASNLEAGVPSRFSGSASGTDFTFTISSLQPEDIATYYCQQNDNLPLTFGQGTRLEIKGGGGSGGGGSGGGGSEVQLVESGGGVVRPGGSLRLSCAASGFTFGDYGMSWVRQAPGKGLEWVSGINWNGGSTGYADSVKGRFTISRDNAKNSLYLQMNSLRAEDTALYYCARDRAPDYGDYLQVGTTDYWGQGTLVTVSS
notes: as for B1
Regarding B8, the binding result is “binds”.

B9: 抗CD123 scFv-C18 (in a CAR on T cells) (scFv)
scFv: QSALTQPASVSGSPGQSITISCTGTSSDVGGYNYVSWYQQHPGKAPKLMIYDVSNRPSGVSNRFSGSKSGNTASLTISGLQAEDEADYYCSSYTSSSTLFVFGTGTELTVLGGGGSGGGGSGGGGSQVQLQESGPGLVKPSQTLSLTCTVSGGSISSGDYYWSWIRQSPGKGLEWIGYIHSTGTTYYNPSLKSRLTISLDTSKNQFSLKLNSVTAADTAVYYCARGGVGTIFNYWGQGTLVTVSS
notes: as for B1
B9: the binding result was “binds”.

B10: 抗CD123 scFv-C4 (in a CAR on T cells) (scFv)
scFv: QSALTQPPSASGTPGQRVTISCSGSSSNIGSNYVNWYQQLPGTAPKLLIYRNNQRPSGVPDRFSGSKSGTSASLAISGLRSEDEADYYCAAWDDSLSGHGVFGTGTELTVLGGGGSGGGGSGGGGSQVQLVQSGPEVKKPGASVKVSCKASGYDFIRYYMNWVRQAPGQGPEWMGAIDPSDGDTTYGQKFQGRVTLTRDTFTSTVYMELSSLRSEDTAVYYCARDWELTNSYGLDVWGQGTTVTVSS
notes: as for B1
With B10, the binding result was “binds”.

B11: 抗CD123 scFv-C11 (in a CAR on T cells) (scFv)
scFv: QSVVTQPPSASGTPGQRVTISCSGSSSNIGSNYVYWYQQLPGTAPKLLIYRNNQRPSGVPDRFSGSKSGTSASLAISGLRSEDEADYYCAAWDDSLSGYVFGTGTKLTVLGGGGSGGGGSGGGGSEVQLVESGGGLVQPGRSLRLSCTASGFTFGDYAMSWVRQAPGKGLEWVGFIRSKAYGGTTEYAASVKGRFTISRDDSKSIAYLQMNSLKTEDTAVYYCTRDIGYYGSGSYSPFDYWGQGTLVTVSS
notes: Human scFv from phage display; also called 抗-CD123-C11; not shown: rest of the CAR, hinge domain to CD3-zeta domain
With B11, the binding result is listed as “binds”.

B12: 抗CD123 scFv-C29 (in a CAR on T cells) (scFv)
scFv: QPVLTQPPSASGTPGQRVTISCSGSSSNIGSNYVYWYQQLPGTAPKLLIYRNNQRPSGVPDRFSGSKSGTSASLAISGLRSEDEADYYCAAWDDSLSGYVFGTGTKVTVLGGGGSGGGGSGGGGSEVHLVESGGGLVQPGRSLRLSCTASGFTFGDYAMSWVRQAPGKGLEWVGFIRSKAYGGTTEYAASVKGRFTISRDDSKSIAYLQMNSLKTEDTAVYYCTRDIGYYGSGSYSPFDYWGQGTLVTVSS
notes: as for B1
Turning to B12, the binding result is “binds”.

B13: 抗CD123 scFv-C15 (in a CAR on T cells) (scFv)
scFv: DIQLTQSPSTLSASVGDRVTISCRASQSISSWLAWYQHKPGKAPKLLIYKTSALEDGVPSRFSGSGSGTEFTLTISSLQPDDFATYFCLHYGSYTFGQGTKVDIKGGGGSGGGGSGGGGSEVQLVESGGGLVNPGGSLRLSCEASGFTFSDYYISWIRQAPGKGLEWISYISGSSTYTDFADSVKGRFTISRDNAKNTVFLQMNSLRAEDTAVYYCARDRRGRFDPWGQGTLVTVSS
notes: as for B1
Turning to B13, the binding result is “binds”.

B14: 抗CD123 scFv-C5 (in a CAR on T cells) (scFv)
scFv: NFMLTQPHSVSESPGKTVTLSCTRSSGSIAGSYVQWYQQRPGSSPTTVIFQDNQRPSGVPDRFSGSIDKSSNSASLTISGLKTEDEADYYCQSYDSNNQVFGGGTKLTVLGGGGSGGGGSGGGGSEVHLVESGGGVVRPGGSLRLSCAASGFTFGDYGMSWVRQAPGKGLEWVSGINWNGGRTGYADSVKGRFTISRDNAKNSLYLQMNSLRAEDTALYYCARARGSGSYFGYMDVWGKGTTVTVSS
notes: Human scFv from phage display; also called 抗-CD123-C5; not shown: rest of the CAR, hinge domain to CD3-zeta domain
Take B14: the binding result is given as “binds”.
